Laboratory results as given in patent US20080182978A1, “ANTI-NGF ANTIBODIES AND METHODS USING SAME” (RINAT NEUROSCIENCE CORP, priority 2002, published 2008).

Experiments:
[1] = system: IL-6, IL-1β, TNF-α and TGF-β1; assay: CFA arthritis rats, paw cytokine levels (ELISA); assay type: in vivo, rat; details: D24; for left paw IL-1β level / left paw IL-6 level / left paw TGF-β1 level / left paw TNF-α level / right paw IL-1β level / right paw IL-6 level / right paw TGF-β1 level / right paw TNF-α level: arthritic rats, E3 1 mg/kg or 911 10 mg/kg i.v. D14+D19, indomethacin 3 mg/kg p.o.
Method: On Day 24 (5 days after the last i.v. bolus injection or 24 hours after the last p.o. administration) (after X-rays radiographies), each animal hindpaw (arthritic and non arthritic rats) was weighed and was collected in a labelled polyethylene vial. Tissue samples were frozen in liquid nitrogen and stored at −80° C.
Preparation of Joint Homogenates: Frozen Hind Paws were Pulverized Using a Bio-Pulverizer. The powdered hind paws were then placed into a 50 ml conical centrifuge tube containing 3 ml PBS supplemented with 50 μl of anti-protease cocktail and homogenized on ice using Ultra-Turrax homogenizer (50% of the maximal speed). Homogenates were then centrifuged at 2000×g for 15 minutes at 4° C. and supernatants were filtered through 0.2 μm Sartorius filters, aliquoted and stored at −80° C. until use.
Cytokine levels measurement: Cytokine levels of TNF-α (Rat TNF-a ELISA kit, ref. RTA00, Batch 213718, R&D Systems, France), IL-1 Rat […] ELISA kit, ref. RLB00, Batch 212435, R&D Systems, France), IL-6 Rat IL-6 ELISA kit, ref. R6000, Batch 211773, 214008 and 214362, R&D Systems, France), and TGF-β1 Human TGF-β1 ELISA kit, ref. DB100, Batch 212258 and 213610, R&D Systems, France) were determined in duplicate, according to the manufacturer's procedure. Aliquots of hind paw homogenates were stored at −80° C.
All results were reported as Mean ±S.E.M. of 10 rats in each group at each time point. Paw volume was expressed in ml calculated from the mean value of the right and left paw volume. Arthritis index was calculated from the sum of the score obtained for each of the 4 paws. The nociceptive response was evaluated by the intensity of the level of vocalization recorded for each animal (mean of 4 values: 2 times/paw) in mV. The percentage inhibition of the nociceptive response was calculated from the mean value of the vehicle-treated arthritic group [(mean value of vehicle-treated arthritic group−mean value of treated arthritic group/mean value of vehicle-treated arthritic group)*100]. Body weight was expressed in grams. Hindpaws (left and right) weight was expressed in grams. Cytokine levels (IL-6, IL-1β, TNF-α and TGF-β1) of each hind paw was expressed in pg/ml. Circulating levels of TGF-β1 was expressed in pg/ml. Radiological index for each parameter (demineralization, erosions, periostal reaction, soft tissue damage, space joint, osteogenesis deformity) and total radiological index (total score) were calculated from the sum of the scores obtained for each parameter. The inter-group significances of the deviations between the values of vehicle-treated group (arthritic rats) and vehicle-treated group (non arthritic rats) were assessed by the Student t test or Mann-Whitney Rank Sum Test when equal variance or normality test failed. The inter-group significances of the deviations between the values of vehicle-treated group (arthritic rats) and E3- and 911- and Indomethacin-treated groups were assessed by the 1-way analysis of variance ANOVA followed by the non-paired Dunnett t test. A probability of P<0.05 was considered as significant. All statistical analysis was performed by the Sigmastat™ software.

[2] = system: moderate to severe pain from osteoarthritis of the knee; assay: Clinical study, osteoarthritis of the knee: WOMAC 3.1 index; assay type: in vivo, human; details: day 1 to day 28
Excerpt: Adult males and females (ages between 35 to 65) who were experiencing moderate-to-severe pain from osteoarthritis of the knee, but were in otherwise overall good health were enrolled in the study. During the screening period, patients were required to discontinue arthritis medications such as NSAIDs, cyclooxygenase type-2 (COX-2) inhibitors, and opiates at least 14 days prior to administration of anti-NGF antibody E3. Patients were allowed to use rescue medications of acetaminophen or ibuprofen with some restrictions based on laboratory findings or past medical history. […] Thirty-four patients were admitted to the study and assessed as inpatients for on Study Days -1, 1 and 2. […] The volume for each patient was calculated based on the subject's Day -1 weight and assigned dose level, ranging from 3-6 cc for cohort 1, 10-20 cc for cohort 2, 30-60 cc for cohort 3, and 100 cc for cohort 4 and cohort 5. […] Each domain was scored by determining the means of the VAS scores of the component questions. The total WOMAC 3.1TM was scored by determining the means of the scores from each of the 3 domains. […] Outcome was assessed as change from baseline (pain level during screening period), expressed as pain intensity difference (PID) or summed pain intensity difference (SPID) for different dose levels. […]

Molecule	left paw IL-1β level [1] [pg/mL]	left paw IL-6 level [1] [pg/mL]	left paw TGF-β1 level [1] [pg/mL]	left paw TNF-α level [1] [pg/mL]	right paw IL-1β level [1] [pg/mL]	right paw IL-6 level [1] [pg/mL]	right paw TGF-β1 level [1] [pg/mL]	right paw TNF-α level [1] [pg/mL]	decrease of TGF-β1 level in right paw compared to vehicle-treated arthritic group ([1]; indomethacin 3 mg/kg/day p.o. 10 days)	WOMAC pain, physical function and stiffness score ([2]; 100 μg/kg)	WOMAC score ([2]; single i.v. dose)	effect on IL-6, IL-1β, TNF-α or TGF-β1 levels in both paws vs vehicle-treated arthritic group ([1]; 1 mg/kg i.v. on D14 and D19)
COc1ccc2c(c1)c(CC(=O)O)c(C)n2C(=O)c1ccc(Cl)cc1 [Indomethacin, reference compound]	4029.1 ± 449.9	249.7 ± 60.4	7708.2 ± 293.9	29.9 ± 3.6	3884.4 ± 534.4	295.9 ± 47.8	7057.4 ± 335.6	30.6 ± 5.7	about 1.3 times			
E3: humanized, affinity matured anti-NGF antagonist antibody; variable regions SEQ ID NO:1 and 2; human IgG2a (A330P331 to S330S331), kappa (antibody, V domains shown, human IgG2a constant (A330S/P331S) and kappa constant missing) VH: QVQLQESGPGLVKPSETLSLTCTVSGFSLIGYDLNWIRQPPGKGLEWIGIIWGDGTTDYNSAVKSRVTISKDTSKNQFSLKLSSVTAADTAVYYCARGGYWYATSYYFDYWGQGTLVTVS VL: DIQMTQSPSSLSASVGDRVTITCRASQSISNNLNWYQQKPGKAPKLLIYYTSRFHSGVPSRFSGSGSGTDFTFTISSLQPEDIATYYCQQEHTLPYTFGQGTKLEIKRT	5060.0 ± 473.5	234.4 ± 35.2	9796.7 ± 491.2	23.6 ± 2.5	4853.5 ± 605.0	214.6 ± 47.2	9362.7 ± 423.4	21.5 ± 2.5		reduced significantly	reduced WOMAC score	did not affect
